The record followed here is patent publication US7223734B2, “Plasma protein-binding ligands” (The American National Red Cross, priority 2002, dated 2007).

Non-standard residues stand in square brackets, D forms with d. No end group written: not given here. 2Nal = N[C@@H](Cc1ccc2ccccc2c1)C(=O)O

For assay [1], the target named is T1, vWF/fVIII (Homo sapiens, UniProt P04275). The assay is described as follows: Primary screening of 6-mer library for vWF/fVIII ligands. Type of assay: binding. On the set-up: from tissue; host or cells: human plasma (first round also purified vWF of unstated origin). To be noted: bead screening, immunodetection. How it is done:
The ToyoPearl 650-M amino resin displaying the library of D- or L-hexamers ([…]) was incubated either with plasma or purified vWF in TBS buffer or EQ buffer. The captured proteins were subsequently eluted stepwise from the resin beads with sodium chloride (0.5 M, 1.0 M, 2.0 M) and guanidine (2–6 M). The target proteins were detected immunologically after transfer onto a PVDF membrane. One of three detection strategies was employed to detect target protein binding. A one-step immunodetection assay using a specific HRP-conjugated polyclonal sheep anti-human vWF antibody was performed. A differential-subtractive immuno-detection assay entailed detecting proteins transferred onto membranes with specific HRP-conjugated polyclonal sheep anti-human vWF antibody in 1:10,000 dilution (AHP062P; Serotec) followed by exposure to chemiluminescence substrate ECLPlus. Membranes were stripped and re-probed with rabbit anti-human albumin antibody (No. A0433, Lot No. 031K4897 from Sigma) followed by secondary alkaline phosphatase-labeled goat anti rabbit antibody (Tropix). Following film development, films were aligned and dots that appeared on films for vWF and on albumin films were deemed background signal. Dots positive for vWF but not for albumin were considered positive. A detection assay using radio-labeled antibody also was performed. Freshly I125-radiolabeled monoclonal anti-human vWF antibody, 101.104 (VWFAE; Enzyme Research) in dilution 1:250 in hSA-Hepes-0.14 M NaCl-Tween buffer was used for detection. After washing, membranes were exposed to Kodak films for 48 hrs at −80° C. Positive beads were picked and prepared for re-probing.
All beads collected from several gels were pooled in the same tube, washed with water and incubated in 8 M Guanidine to remove remaining proteins before re-probing. After extensive washing with water and citrate buffer, the resin beads were blocked with 3% human albumin for 2 hours and incubated with human plasma. Resin beads were immobilized in agarose gels (6 cm×7 cm) and target protein was transferred to a PVDF membrane in 2 M NaCl for 20 hours. Membranes were blocked, incubated with 101.104 anti-vWF antibody, and detected with secondary goat/anti-mouse-HRP. In some experiments, sheep anti-human vWF antibody conjugated with HRP was used for detection. Positive beads were picked, washed, and the attached ligands were sequenced.
For some re-probing experiments, resin beads linked to target proteins were visualized by adding specific antibody and color substrate to facilitate further alignment. Detection of a target protein bound to the resin beads by non-labeled monoclonal antibody 101.104 anti-vWF was used followed by goat/anti-mouse antibody conjugated with alkaline phophatase and FastRed prior to immobilizing beads in the agarose gel. Additional substrate CDPStar was applied directly onto a gel with immobilized beads, and the gel was exposed to a Kodak film. Dark spots on the film were correlated with red spots on the gel to ensure appropriate alignment. The proteins from resin beads immobilized in the gel were transferred onto a membrane and developed again with radiolabeled monoclonal antibody against vWF. The films and gel were aligned, and resin beads that appeared positive in all stages were picked, washed, and attached ligands sequenced.

Assay [2] addresses T1, vWF/fVIII. The assay is described as follows: Removal of vWF/fVIII from plasma on D-EADna2′ED resin, fVIII coagulation assay (Example 11). Type of assay: binding. More on the design: from tissue; host or cells: pooled human plasma. How it is done:
(§1) Pooled human plasma (20 ml) was added to 0.8 ml of resin and incubated for 30 minutes while gently rotating. Resin was settled under gravity or by short gentle centrifugation, and the supernatant was collected (the equivalent of “flow-through” of the previous examples). The resin was then packed into an Omni column and the chromatography was completed using the ÄKTAExplorer system. The flow rate was kept constant at 0.4 ml/min (LV=31 cm/h; retention time=2 minutes). After washing of the resin with EQ buffer to baseline, the bound proteins were eluted from the resin with 10 column volumes (CV) of 0.5 M NaCl, followed by 10 CVs of 0.75 M NaCl, 1.0 M NaCl/1% Tween (all in 0.02 M sodium citrate, pH 7.0) and 2.0 M guanidine. Twenty-five microliters of 0.4 M calcium chloride was added to each fraction collected, and the fractions were evaluated by OD reading and Western Blots for vWF and fVIII antigen. The fVIII activity of pooled fractions was determined by chromogenic and coagulation assays.

For assay [3], the target named is T1, vWF/fVIII. The assay is described as follows: Removal of vWF/fVIII from plasma on D-EADna2′ED resin, fVIII chromogenic assay (Example 11). To be noted: for FVIII / Total FVIII: Chromogenic Assay. Type of assay: binding. More on the design: from tissue; host or cells: pooled human plasma. How it is done:
as §1

The next assay has as its target T2, API (Homo sapiens, UniProt P01009).
T2 construct: from tissue; host or cells: human plasma (whole, fibrinogen-depleted or F1-Apo-depleted)
In words: Primary screening of 6-mer library for API-binding ligands. To be noted: bead screening, immunodetection / radiolabel. How it is done: Peptide libraries attached to Toyopearl-AF Amino 650M resin or Tentagel resin were evaluated with 14C-labeled fibrinogen and API. All steps were performed at room temperature. Specifically, 20 mg of Toyopearl resin beads or 40 mg of Tentagel resin beads were suspended in 20% methanol for a minimum of 2 hours in 15 ml conical polypropylene tubes (Corning). After rinsing with distilled water, the resin beads were equilibrated in 0.15 M NaCl, 0.020 M sodium citrate, pH 7.3. The resin beads were then blocked for 2 hours with 1% casein (Sigma) in 0.15M NaCl, 0.020M sodium citrate, pH 7.3. Following blocking, the resin beads were centrifuged and the supernatant removed. A solution containing 1 mM of C^14-labeled fibrinogen or 30 μM of C^14-labeled API was applied to the resin beads in the blocking solution in the presence of 0.1% Tween-20 (Sigma). The materials were incubated for 2 hours. The resin beads were washed with 0.15 M NaCl, 0.020 M sodium citrate, 0.05% Tween-20, pH 7.3, in a batch method (fibrinogen ligands) or in disposable BioRad 10 ml columns (API ligands) until radiation counts reached the background level of less than 40 DPM. The resin beads were divided into separate tubes to obtain approximately 5–10 mg of resin beads per sheet. This was accomplished by mixing each aliquot of resin beads with 20–22 ml of 1% low melting agarose solution (Sigma) at less than 40° C., and rapidly pouring the mixture onto GelBond® film sheets (BMA Cat. No. 53749, 16×18 cm; Cat. No. 53759, 12.5×24.5 cm). Spreading of the resin beads to the edge of the gel sheets was prevented by creating frames (about 23 cm×about 10 cm or about 15 cm×about 15 cm) with several layers of masking tape. About 20–22 ml of resin bead-agarose mixture was plated on each GelBond sheet. Special care was taken to spread the beads in an even monolayer to facilitate identification and isolation of individual “hot” beads. The agarose gel was then air-dried overnight and placed, bead side down, on X-ray film (Kodak Biomax MR). The agarose and autoradiography film were exposed for 4–14 days followed by a second exposure of 7 days in an about 20 cm×about 25 cm stainless steel cassette. Afterwards, the films were taped together and marked with several staple holes to ensure proper alignment of beads in agarose to film. After the films were developed, the positive beads that appeared on both films were identified under the microscope and picked by aligning the developed film(s) and agarose gel via the staple holes. Beads to be sequenced were carefully picked by cutting a square trench around the bead with a scalpel, and hydrating this area with distilled water. […]

Another assay concerns paraoxonase. To be noted: resin bead suspension. How it is done:
Paraoxonase binding to a WWLHAN (SEQ ID NO: 56)-displaying resin was evaluated according to the following protocol. Rabbit serum diluted 1/10 times with PBS ([…]) was incubated in a rotating Eppendorf tube with 50 μl of D-WWLHAN (SEQ ID NO: 56)-displaying resin suspension containing approximately […] of resin. The resin was previously soaked in 20% methanol overnight and washed 3 times with PBS to remove the methanol traces and resuspended in paraoxonase assay buffer (20 mM Tris pH 8.0, 150 mM NaCl, and 2 mM CaCl2). After 1 hour incubation at 37° C., resin beads were precipitated by centrifugation at 8000 g for 1 min in an Eppendorf microcentrifuge. Supernatants were transferred into separate Eppendorf tubes and resin bead pellets were resuspended in equal volumes of paraoxonase assay buffer. Paraoxonase activity of resin bead suspensions and supernatant solutions was measured. In particular, 100 μl of paraoxonase assay buffer containing 100 μm of DEPFMU (a fluorogenic substrate for paraoxonase detection) was mixed with […] of supernatant or 10 μl of resin bead suspension, or the original serum solution in a standard microtiter plate well. After thorough mixing, the plate solution was incubated for 20 minutes at 37° C. Hydrolysis of DEPFMU was quantified by measuring the fluorescence level at […] using a commercial fluorometer. The level of fluorescence correlates with the level of 6,8-difluoro-4-methylumbelliferyl released from DEPFMU as a result of paraoxonase-mediated hydrolysis. The actual amount of 6,8-difluoro-4-methylumbelliferyl released in the assay can be calibrated with a known amount of 6,8-difluoro-4-methylumbelliferyl.
Several different D-WWLHIN (SEQ ID NO: 33) analogs were screened for the ability to bind to paraoxonase under the conditions described in Example 7. For this experiment, the following resins were tested: WWLHAN (SEQ ID NO: 56), AWLHIN (SEQ ID NO: 59), WALHIN (SEQ ID NO: 60), WWAHIN (SEQ ID NO: 61), WWLHIA (SEQ ID NO: 63), WYLHIN (SEQ ID NO: 35), WWLFIN (SEQ ID NO: 36), and na1′WLHIN (SEQ ID NO: 40).

T2 sequence (P01009 25-418): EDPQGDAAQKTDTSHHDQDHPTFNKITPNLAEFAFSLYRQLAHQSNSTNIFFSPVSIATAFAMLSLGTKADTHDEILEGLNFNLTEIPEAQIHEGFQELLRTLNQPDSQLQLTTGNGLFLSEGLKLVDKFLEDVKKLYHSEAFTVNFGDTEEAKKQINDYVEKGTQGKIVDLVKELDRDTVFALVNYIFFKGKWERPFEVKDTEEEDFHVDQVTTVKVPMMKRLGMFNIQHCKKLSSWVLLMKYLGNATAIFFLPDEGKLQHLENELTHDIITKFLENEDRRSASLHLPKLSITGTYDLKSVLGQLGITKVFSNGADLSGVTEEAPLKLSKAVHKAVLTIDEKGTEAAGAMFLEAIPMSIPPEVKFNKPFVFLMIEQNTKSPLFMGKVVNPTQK

“EADna2′ED (EAD[2Nal]ED; not fully specified; also: D-amino acids, positions not given here) [D-EADna2′ED]”: in the assay with vWF/fVIII [1], the “identified as vWF/fVIII binding peptide from the 6-mer library” value (from here on “identified as vWF/fVIII binding peptide”) was “vWF/fVIII binding”. Also, the FVIII with vWF/fVIII [2] (Elution 1 (0.75 M NaCl)) was determined as 0.39 IU/ml; with vWF/fVIII [2] (Elution 2 (1.0 M NaCl)) it was 0 IU/ml; in the assay with vWF/fVIII [2] (Flow-Through, plasma load 0.423 IU/ml) it was 0.08 IU/ml; with vWF/fVIII [2] (Wash (0.5 M NaCl)) it was 0 IU/ml; with vWF/fVIII [3] (Elution 1 (0.75 M NaCl)) it was 0.46 IU/ml; with vWF/fVIII [3] (Elution 2 (1.0 M NaCl)), 0 IU/ml. In addition, the FVIII amounted to 0.08 IU/ml with vWF/fVIII [3] (Flow-Through, plasma load 20 ml, 1.07 IU/ml) and 0.12 IU/ml with vWF/fVIII [3] (Wash (0.5 M NaCl)). Also, the “Total FVIII” value is reported as 3.9 IU with vWF/fVIII [2] (Elution 1 (0.75 M NaCl)); 0 IU in the assay with vWF/fVIII [2] (Elution 2 (1.0 M NaCl)); 1.6 IU with vWF/fVIII [2] (Flow-Through, load 8.46 IU); 0 IU in the assay with vWF/fVIII [2] (Wash (0.5 M NaCl)); 4.6 IU with vWF/fVIII [3] (Elution 1 (0.75 M NaCl)); 0 IU in the assay with vWF/fVIII [3] (Elution 2 (1.0 M NaCl)). Besides, the “Total FVIII” value in the assay with vWF/fVIII [3] (Flow-Through, load 21.4 IU) turned out to be 1.6 IU; with vWF/fVIII [3] (Wash (0.5 M NaCl)), 1.2 IU. Further, in the assay with vWF/fVIII [3] (plasma, fVIII activity and Western Blot for vWF), the “binding of vWF/fVIII by the resin” value was “binds vWF/fVIII”.
As to EDSWDV, the “identified as vWF/fVIII binding peptide” value in the assay with vWF/fVIII [1] is “vWF/fVIII binding”.
HFDLHR: the “identified as API-binding peptide ligand from the 6-mer library” value in the assay with API is listed as “API-binding”.
Take LEDna2′EE (LED[2Nal]EE): the “identified as vWF/fVIII binding peptide” value with vWF/fVIII [1] is on record as “vWF/fVIII binding”.
The same measure, in the same setting: for QWFPEK the value was “vWF/fVIII binding”.
On to WALHIN [D-WALHIN], for which the “paraoxonase activity of bead fractions” value in the assay with paraoxonase is recorded as “Significant activity”.
Still for that read-out and setting: for WWAHIN [D-WWAHIN] the value was “Significant activity”; for WWLFIN [D-WWLFIN], “Significant activity”.
In the case of YHLGWL, the “identified as vWF/fVIII binding peptide” value with vWF/fVIII [1] is “vWF/fVIII binding”.
On the same count and under the same terms, for YLHYQT the value was “vWF/fVIII binding”.
Still for that read-out and setting: then YVDEDD, with “vWF/fVIII binding”.
